molecular target: L363 antibody (anti-CD1d-α-GalCer); assay: SPR

| Kd [µM] | kon [M⁻¹ s⁻¹] | koff [s⁻¹] | Substance |
| --- | --- | --- | --- |
| 0.35 | 142000 |  | CD1d loaded with C24:1 α-GalCer (from UniProt P11609 22-297; P01887 21-119) (complex) |
| 0.0967 | 85700 |  | CD1d loaded with α-GalCer (from UniProt P11609 22-297; P01887 21-119) (complex) |
| 5.02 | 93700 | 0.471 | CD1d loaded with α-GluCer (from UniProt P11609 22-297; P01887 21-119) (complex) |
| 2.23 | 943000 |  | CD1d loaded with α-lyso-galactosylceramide (α-psychosine) (from UniProt P11609 22-297; P01887 21-119) (complex) |
| 8.14 | 4590 | 0.115 | CD1d loaded with α-lyso-glucosylceramide (α-glucopsychosine) (from UniProt P11609 22-297; P01887 21-119) (complex) |

— paper PMC4220304
